Target: T1, CasEnd-2 (synthetic construct)
T1 chain: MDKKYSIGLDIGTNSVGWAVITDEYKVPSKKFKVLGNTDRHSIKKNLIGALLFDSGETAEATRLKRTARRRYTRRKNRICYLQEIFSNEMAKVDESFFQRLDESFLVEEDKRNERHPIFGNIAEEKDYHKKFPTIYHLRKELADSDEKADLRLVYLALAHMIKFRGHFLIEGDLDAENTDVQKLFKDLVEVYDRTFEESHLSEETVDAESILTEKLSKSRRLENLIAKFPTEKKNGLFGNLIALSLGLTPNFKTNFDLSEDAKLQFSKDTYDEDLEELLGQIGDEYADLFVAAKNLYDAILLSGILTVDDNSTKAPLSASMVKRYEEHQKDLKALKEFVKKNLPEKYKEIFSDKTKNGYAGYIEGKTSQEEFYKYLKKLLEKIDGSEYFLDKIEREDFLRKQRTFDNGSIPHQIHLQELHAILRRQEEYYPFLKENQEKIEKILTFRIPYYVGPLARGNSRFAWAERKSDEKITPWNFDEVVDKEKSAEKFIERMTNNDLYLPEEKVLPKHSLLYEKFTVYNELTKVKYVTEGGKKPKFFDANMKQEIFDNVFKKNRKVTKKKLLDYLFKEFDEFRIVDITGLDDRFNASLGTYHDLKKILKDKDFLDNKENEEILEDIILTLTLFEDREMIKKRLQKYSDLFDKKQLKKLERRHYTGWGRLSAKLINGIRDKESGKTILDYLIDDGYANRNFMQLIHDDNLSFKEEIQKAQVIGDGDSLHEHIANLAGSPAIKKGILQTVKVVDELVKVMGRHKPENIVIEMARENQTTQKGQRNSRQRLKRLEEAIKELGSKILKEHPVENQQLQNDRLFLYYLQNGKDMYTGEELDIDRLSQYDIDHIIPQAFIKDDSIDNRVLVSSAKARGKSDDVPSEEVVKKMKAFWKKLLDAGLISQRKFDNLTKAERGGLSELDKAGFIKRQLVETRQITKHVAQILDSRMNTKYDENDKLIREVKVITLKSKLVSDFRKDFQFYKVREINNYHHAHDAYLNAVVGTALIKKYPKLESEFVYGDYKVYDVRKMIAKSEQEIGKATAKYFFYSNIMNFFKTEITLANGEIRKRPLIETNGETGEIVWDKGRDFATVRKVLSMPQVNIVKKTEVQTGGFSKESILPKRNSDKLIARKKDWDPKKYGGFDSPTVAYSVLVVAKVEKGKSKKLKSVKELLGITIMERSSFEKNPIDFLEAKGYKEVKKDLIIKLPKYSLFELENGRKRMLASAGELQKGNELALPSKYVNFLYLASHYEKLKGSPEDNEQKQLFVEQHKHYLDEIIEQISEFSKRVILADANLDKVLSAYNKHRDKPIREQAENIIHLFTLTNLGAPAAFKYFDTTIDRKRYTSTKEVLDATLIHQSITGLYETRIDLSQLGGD
Assay: cell_activity; +++; HEK293T; PAM not stated
Outline: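 BFP-to-GFP conversion via reverse transcriptase fusion with each Cas endonuclease plus template RNA: 200 ng of each plasmid nucleofected into 250,000 BFP-expressing HEK293T cells (program DS-150). Percent GFP+ cells by flow cytometry at day 4 measured editing.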

B1: BFP-to-GFP template RNA ; BFP reporter protospacer (ssRNA ; dsDNA)
RNA: GCCGAAGCACUGCACGCCGUGUUUUAGAGCUAGAAAUAGCAAGUUAAAAUAAGGCUAGUCCGUUAUCAACUUGAAAAAGUGGCACCGAGUCGGUGCACCCUGACGUACGGCGUGCAGUGCUU
DNA 1: GCCGAAGCACTGCACGCCGT
DNA 2: ACGGCGTGCAGTGCTTCGGC
activity: ≥ 100 % of reference

Reference: patent US20250092426, “CAS ENDONUCLEASES AND RELATED METHODS” (Flagship Pioneering Innovations VII, LLC, published 2025)
